Measured values reported in US20200239573A1 (CRESCENDO BIOLOGICS, published 2020).
Substitutions are numbered along the chain they refer to. Several values for one entry are separate records, joined by “and”; a condition that tells them apart may be missing. Equal entries are not always repeated. Where two headings read alike, the source gives them in different places. Values belong to the binder of their own block, whether it stands above or below them.

Assays:
[1] = target: T1, recombinant human PD-1 Fc chimera (human, UniProt Q15116 25-167); test: HTRF inhibition; biotinylated PD-L2-Fc vs Eu-cryptate PD-1-Fc
T1 construct: Bought protein; also called human PD-1-huFc; huPD-1-Fc; not shown: human Fc
T1 sequence (Q15116 25-167 limits assumed, change not shown): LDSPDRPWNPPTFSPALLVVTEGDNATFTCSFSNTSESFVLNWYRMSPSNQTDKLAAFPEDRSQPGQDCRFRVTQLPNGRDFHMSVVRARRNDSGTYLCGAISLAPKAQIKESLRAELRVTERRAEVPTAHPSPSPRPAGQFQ

[2] = target: T2, cynomolgus PD-1 recombinant protein (cynomolgus, UniProt B0LAJ3 25-170); test: HTRF binding, 2 nM PD-1, anti-Fc cryptate and anti-His-D2
T2 construct: Detected with anti human-Fc cryptate, so probably Fc tagged; also called cyno PD-1; cynomolgus PD-1 (Acro Biosystems cat no. PD-1-05254); not shown: The vendor's carrier tag; It is probably a human Fc, since detection used anti human-Fc cryptate
T2 sequence (B0LAJ3 entry or part of it limits assumed): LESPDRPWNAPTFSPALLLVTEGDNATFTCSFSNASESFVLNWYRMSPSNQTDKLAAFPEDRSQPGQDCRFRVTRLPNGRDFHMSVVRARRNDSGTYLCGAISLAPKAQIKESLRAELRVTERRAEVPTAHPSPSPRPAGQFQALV
Procedure: (§1) e) Species Cross Reactivity Testing Purified […] were tested for their ability to bind to human PD-1 (R&D Systems cat no. 1086-PD), cynomolgus PD-1 (Acro Biosystems cat no. PD-1-05254) and mouse PD-1 (R&D Systems cat no. 1021-PD) in an HTRF Binding assay format. All reagents and serially diluted VH were prepared in assay buffer containing PBS, 0.1% BSA and 0.4M Potassium Fluoride. Samples or assay buffer (non-specific binding) were incubated with 2 nM human/cynomolgus or mouse PD-1, 1 nM Anti human-Fc Cryptate PAb (Cisbio cat. no. 61HFCKLB) and 30 nM anti His-D2 (CisBio cat no 61HISDLA) in black 384-shallow well assay plates for a minimum of 3 hours at room temperature. Time-resolved fluorescent emission at 620 nm and 665 nm was measured following excitation at 337 nm on the BMG PHERAstar plate reader. The HTRF ratio were calculated ((665 nm emission/620 nm emission)*10000) and the data corrected for (non-specific binding) to give the specific binding signal.

[3] = target: T1, recombinant human PD-1 Fc chimera; test: as above
Procedure: as §1

[4] = target: T1, recombinant human PD-1 Fc chimera; test: HTRF inhibition; strep-tagged PD-L1 vs PD-1-Fc
[5] = target: T1, recombinant human PD-1 Fc chimera; test: SPR Biacore T200, PD-1-huFc amine-coupled, single cycle kinetics
Procedure: Binding kinetics of certain VH single domain antibodies binding to human PD-1-huFc were measured by surface plasmon resonance (SPR) technology using Biacore T200 instrument (GE Healthcare). Recombinant human PD-1-huFc was immobilized by standard amine coupling to CM5 sensorschip (GE Healthcare) using in range of 0.1-0.01 mg/ml solution of antigen in 10 mM sodium acetate at pH 5.5. For the reference flow cell, a blank immobilisation was carried out. Single cycle kinetics assays were used to study the interaction, a five point, three-fold dilution series of each Humabody® was made with a top concentration of 30 nM. The binding kinetics were followed by flowing the Humabody® over the chip surface in HBS EP+ buffer at a flow rate of 30 μl/min. The contact time for each of the association steps was 180 seconds and the dissociation step was varied between 1200-3600 seconds. The data was fitted to a 1:1 binding model after double reference subtraction using the Biacore T200 Evaluation software.

[6] = target: T3, human PD-1 expressed on cells (CHO human PD-1 cells) (human, UniProt Q15116 21-288); test: FMAT inhibition assay on CHO human PD-1 cells; blocked ligand: human Fc tagged human PD-L1
T3 construct: also called CHO TREX human PD-1 cell line; CHO PD-1
T3 sequence (Q15116 21-288): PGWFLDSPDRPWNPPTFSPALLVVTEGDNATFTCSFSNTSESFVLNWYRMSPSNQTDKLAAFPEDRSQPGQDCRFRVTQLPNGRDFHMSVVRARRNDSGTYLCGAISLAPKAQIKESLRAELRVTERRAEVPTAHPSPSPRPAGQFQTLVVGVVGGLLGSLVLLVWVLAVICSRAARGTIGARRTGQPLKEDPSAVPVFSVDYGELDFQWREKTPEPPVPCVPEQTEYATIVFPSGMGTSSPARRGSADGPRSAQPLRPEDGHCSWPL
Procedure: (§2) All reagents and serially diluted VH were prepared in FMAT assay buffer. […] Plates were incubated for 2 hours at room temperature then fluorescence measured in the FL2 (502 nm-537 nm) and FL5 (677-800 nm) channels on the Mirrorball plate reader (TTP) following excitation at 488 nm and 640 nm. Data was expressed as a % of the total binding control (i.e. % control) after subtraction of the background signal determined from the non-specific binding control wells.

mouse PD-1 protein [7] = target: T4, mouse PD-1 protein (mouse, UniProt Q02242 25-167); test: HTRF binding, 2 nM mouse PD-1
T4 construct: Detected with anti human-Fc cryptate, so probably Fc tagged; also called mouse PD-1 (R&D Systems cat no. 1021-PD)
T4 sequence (looked up): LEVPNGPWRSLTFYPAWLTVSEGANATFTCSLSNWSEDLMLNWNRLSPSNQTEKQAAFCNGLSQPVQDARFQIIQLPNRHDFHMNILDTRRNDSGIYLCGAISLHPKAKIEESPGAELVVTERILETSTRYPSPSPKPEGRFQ
Procedure: as §1

[8] = target: T3, human PD-1 expressed on cells (CHO …); test: FMAT 1.57 epitope competition assay on CHO human PD-1 cells; competitor: 1.57-Strep tagged protein; 7 days in mouse serum
Procedure: (§3) For the epitope competition assay reagents were prepared in FMAT assay buffer. […] Plates were incubated for a minimum of 1.5 hours at room temperature then fluorescence measured in the FL2 (502 nm-537 nm) and FL5 (677-800 nm) channels on the Mirrorball plate reader (TTP) following excitation at 488 nm and 640 nm. Data was expressed as a % of the total binding control (i.e. % control) after subtraction of the background signal determined from the non-specific binding control wells.
(§4) Serum stability of VH and multivalent VH constructs was assessed by measurement of their activity following incubation for 0, 1, 4 or 7 days in mouse serum (Sigma M5905).

[9] = target: human PD-1 expressed on cells (CHO human PD-1 cells) (human) (UniProt Q15116); test: as above
Sequence of human PD-1 expressed on cells (CHO human PD-1 cells) (human) (Q15116 21-288): as the sequence (Q15116 21-288) above

[10] = target: human PD-1 expressed on cells (CHO human PD-1 cells) (human) (UniProt Q15116); test: FMAT inhibition assay on CHO human PD-1 cells; blocked ligand: human Fc tagged human PD-L1
[11] = target: T3, human PD-1 expressed on cells (CHO …); test: cell-based or functional assay
[12] = target: T1, recombinant human PD-1 Fc chimera; test: SPR Biacore T200, PD-1-Fc captured on protein G, single cycle kinetics
Procedure: Single cycle kinetics assays were used to study the interaction between human Fc tagged human PD-1 with Humabody® on a Biacore T200 instrument (GE Healthcare). Protein G was amine coupled to two flow cells of a CM-5 chip. Human Fc tagged recombinant human PD-1 was captured onto one of the flow cells. The other was used as the reference flow cell. A five point, three-fold dilution series of each Humabody® was made with a top concentration within the range of 50 to 150 nM. The binding kinetics were followed by flowing the Humabody® over the chip surface in HBS EP+ buffer at a flow rate of 30 μl/min. The contact time for each of the association steps was 180 seconds and the dissociation step was 3600 seconds. The data was fitted to a 1:1 binding model after double reference subtraction using the Biacore T200 Evaluation software.

[13] = target: human PD-1 on primary human CD4+ T cells (human, UniProt Q15116 21-288); test: flow cytometry on PHA-stimulated human CD4+ T cells (live cell gate)
Sequence of human PD-1 on primary human CD4+ T cells (Q15116 21-288): as the sequence (Q15116 21-288) above
Procedure: Binding of monovalent single domain antibodies and multivalent binding agents to T cells was measured using flow cytometry. […] T-cells were stimulated with 2.5 μg/ml PHA for 2-4 days in RPMI media supplemented with 10% FBS, 2 mM Glutamine, 1× Pen/Strep. Cells were transferred into 96 well plates (75000 per well), blocked for 10 mins with PBS/1% BSA, then incubated with serially diluted VH in staining buffer (PBS/1% BSA) for 1 hour at 4° C. Cells were washed with staining buffer by centrifugation then incubated with 10 μg/ml biotinylated Anti His antibody for 40 mins at 4° C. Cells were washed again then stained with Streptavidin Alexa Fluor-488 (10 μg/ml) and 1:5000 diluted Live Dead near IR stain (Molecular Probes cat no. L10119) for 30 mins at 4° C. After further washing cells were fixed and fluorescence measured by flow cytometry.

[14] = target: human PD-1 expressed on cells (CHO human PD-1 cells) (human) (UniProt Q15116); test: FMAT 1.57 epitope competition assay on CHO human PD-1 cells; competitor: 1.57-Strep tagged protein; 0 days in mouse serum
[15] = target: human PD-1 expressed on cells (CHO human PD-1 cells) (human) (UniProt Q15116); test: FMAT 1.57 epitope competition assay on CHO human PD-1 cells; competitor: 1.57-Strep tagged protein; 1 day in mouse serum
[16] = target: human PD-1 expressed on cells (CHO human PD-1 cells) (human) (UniProt Q15116); test: cell-based or functional assay
[17] = target: T3, human PD-1 expressed on cells (CHO …); test: FMAT 1.57 epitope competition assay on CHO human PD-1 cells; competitor: 1.57-Strep tagged protein; 1 day in mouse serum
Procedure: as §3, §4

[18] = target: T3, human PD-1 expressed on cells (CHO …); test: FMAT 1.57 epitope competition assay on CHO human PD-1 cells; competitor: 1.57-Strep tagged protein; 4 days in mouse serum
Procedure: as §3, §4

[19] = target: T3, human PD-1 expressed on cells (CHO …); test: FMAT 1.57 epitope competition assay on CHO human PD-1 cells; competitor: 1.57-Strep tagged protein; 0 days in mouse serum
Procedure: as §3, §4

[20] = target: T3, human PD-1 expressed on cells (CHO …); test: FMAT inhibition assay on CHO human PD-1 cells; blocked ligand: human Fc tagged human PD-L1; a separate run from Figure 4 a)
Procedure: as §2

[21] = target: T3, human PD-1 expressed on cells (CHO …); test: cell-based or functional assay; remark: listed apart in the source
[22] = target: T5, Strep tagged recombinant human PD-1 (human, UniProt Q15116 25-170, limits assumed); test: SPR Biacore T200, strep-tagged PD-1 amine-coupled, single cycle kinetics
T5 construct: the whole entry is named; also called strep tagged human PD-1; not shown: Strep tag
T5 sequence (Q15116 25-170 limits assumed): as the sequence (B0LAJ3 entry or part of it limits assumed) above, with E2D, A10P, L19V, A35T, R75Q, A144T counted along it

mouse PD-1 protein [23] = target: T4, mouse PD-1 protein; test: HTRF binding
[24] = target: T3, human PD-1 expressed on cells (CHO …); test: cell-based or functional assay; remark: listed apart in the source

IC50 [1]: 4.9 nM
EC50 [2]: 6.3 nM
EC50 [3]: 4 nM
IC50 [4]: 1.27 nM
Kd [5]: 0.676 nM
koff [5]: 7.35e-05 s⁻¹
kon [5]: 109000 M⁻¹ s⁻¹
IC50 (read off the curve) [6]: ~20 nM
binding result (mouse PD-1 protein [7]): no binding
B1: Humabody® 1.1 (VHH)
VHH: QVQLVESGGGLVKPGGSLRLSCAASGFTFSDYTMTWMRQAPGKGLEWVSYISTGGTIKYYTDSVKGRFTISRDNAKNSLYLQMNSLRADDTAVYYCAREAPLRLGESPHDAFDIWGQGTMVTVSS
notes: human VH single domain antibody; also called VH single domain antibody 1.1; clone 1.1

IC50 (read off the curve) [8]: ~2 nM
IC50 (read off the curve) [9]: 3 nM
IC50 (read off the curve) [10]: 6 nM
Reporter Assay EC50 [11]: 8.6 nM
Kd [12]: 0.0586 nM and 0.0533 nM
koff [12]: 1.99e-05 s⁻¹ and 2.32e-05 s⁻¹
kon [12]: 340000 M⁻¹ s⁻¹ and 435000 M⁻¹ s⁻¹
EC50 (read off the curve) [13]: 1 nM
EC50 (read off the curve) ([13]; record 2): ~0.2 nM
IC50 (read off the curve) [14]: 2 nM
EC50 [2]: 0.75 nM
EC50 [3]: 0.59 nM
IC50 (read off the curve) [15]: 1 nM
EC50 (M), human PD-1 reporter gene assay [16]: 1e-08 M
EC50 (M), reporter assay [16]: 1e-08 M
IC50 (read off the curve) [17]: ~0.7 nM
IC50 (read off the curve) [18]: ~1 nM
IC50 (read off the curve) [19]: ~0.4 nM
IC50 (read off the curve) [20]: ~4 nM
binding result (mouse PD-1 protein [7]): no binding
B2: Humabody® 1.57 (VHH)
VHH: B1 VHH with Y32N, T33S, T53S, T56G, I57V, K58I, Y59F, T61A, W115S
notes: human VH single domain antibody

EC50 (M), human PD-1 reporter gene assay [21]: 1e-09 M
Kd [22]: 0.0173 nM
koff [22]: 1.54e-05 s⁻¹
kon [22]: 888000 M⁻¹ s⁻¹
binding result (mouse PD-1 protein [23]): no binding
EC50 (M), reporter assay [24]: 1e-09 M
B3: 1.57-4GS-1.57 (other)
chain: QVQLVESGGGLVKPGGSLRLSCAASGFTFSDNSMTWMRQAPGKGLEWVSYISSGGGVIFYADSVKGRFTISRDNAKNSLYLQMNSLRADDTAVYYCAREAPLRLGESPHDAFDISGQGTMVTVSSGGGGSGGGGSGGGGSGGGGSQVQLVESGGGLVKPGGSLRLSCAASGFTFSDNSMTWMRQAPGKGLEWVSYISSGGGVIFYADSVKGRFTISRDNAKNSLYLQMNSLRADDTAVYYCAREAPLRLGESPHDAFDISGQGTMVTVSS
notes: bivalent construct of two VH domains in one chain
